Assay results as given in EP3926342A1.

What was measured:
[1] = target: recombinant human ICAM-1/CD54 (R&D Systems) (human) (UniProt P05362)
[2] = target: biotinylated RV89 (human rhinovirus) (UniProt P07210)
[3] = target: human rhinovirus strain RV89 (major group RV-A), purified virus (human rhinovirus) (UniProt P07210); assay: fluid phase competition ELISA: RV89 (25 µg/ml) pre-incubated with 50 µg/ml soluble ICAM-1, then added to plate-bound ICAM-1
[4] = target: human rhinovirus strain RV2 (minor group RV-A), purified virus (human rhinovirus) (UniProt P04936); assay: fluid phase competition ELISA: RV2 (5 µg/ml as printed here) pre-incubated with 50 µg/ml soluble LDLR, then added to plate-bound LDLR
Sequence of human rhinovirus strain RV2 (minor group RV-A), purified virus (human rhinovirus) (P04936 2-850): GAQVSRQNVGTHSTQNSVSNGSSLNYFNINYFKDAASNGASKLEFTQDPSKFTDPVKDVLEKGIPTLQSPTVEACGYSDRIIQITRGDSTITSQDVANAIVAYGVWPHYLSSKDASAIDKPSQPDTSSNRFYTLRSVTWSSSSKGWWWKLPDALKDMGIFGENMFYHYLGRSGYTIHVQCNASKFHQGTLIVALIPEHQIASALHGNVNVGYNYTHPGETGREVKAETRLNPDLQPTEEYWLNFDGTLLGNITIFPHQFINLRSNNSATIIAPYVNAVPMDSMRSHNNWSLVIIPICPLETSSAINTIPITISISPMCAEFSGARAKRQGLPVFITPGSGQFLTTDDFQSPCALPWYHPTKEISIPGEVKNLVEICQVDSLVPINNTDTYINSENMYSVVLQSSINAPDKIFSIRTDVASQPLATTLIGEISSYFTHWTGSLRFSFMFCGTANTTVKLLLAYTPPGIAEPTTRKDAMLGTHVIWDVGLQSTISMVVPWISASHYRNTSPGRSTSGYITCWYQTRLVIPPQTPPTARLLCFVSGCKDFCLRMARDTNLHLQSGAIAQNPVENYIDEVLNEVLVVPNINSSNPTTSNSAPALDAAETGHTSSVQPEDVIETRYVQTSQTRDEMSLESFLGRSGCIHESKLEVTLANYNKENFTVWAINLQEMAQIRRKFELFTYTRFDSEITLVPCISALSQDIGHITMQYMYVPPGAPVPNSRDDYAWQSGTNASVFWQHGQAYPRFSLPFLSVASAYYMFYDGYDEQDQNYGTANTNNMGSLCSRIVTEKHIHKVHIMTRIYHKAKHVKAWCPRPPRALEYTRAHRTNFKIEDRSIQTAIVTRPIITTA

Sequence of recombinant human ICAM-1/CD54 (R&D Systems) (human) (P05362 28-480 limits assumed): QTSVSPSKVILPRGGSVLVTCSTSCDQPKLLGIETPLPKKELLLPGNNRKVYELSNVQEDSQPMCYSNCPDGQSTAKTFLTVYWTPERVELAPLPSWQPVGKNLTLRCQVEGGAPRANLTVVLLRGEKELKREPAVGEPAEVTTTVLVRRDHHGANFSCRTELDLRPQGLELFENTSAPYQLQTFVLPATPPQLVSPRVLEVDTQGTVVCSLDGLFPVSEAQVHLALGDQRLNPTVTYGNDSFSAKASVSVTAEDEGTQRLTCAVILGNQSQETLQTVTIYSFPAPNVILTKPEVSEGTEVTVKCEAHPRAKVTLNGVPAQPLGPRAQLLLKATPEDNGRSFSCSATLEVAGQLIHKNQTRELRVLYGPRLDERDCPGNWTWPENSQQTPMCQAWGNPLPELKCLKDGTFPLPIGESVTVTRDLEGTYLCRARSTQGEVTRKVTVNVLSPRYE
Sequence of human rhinovirus strain RV89 (major group RV-A), purified virus (human rhinovirus) (P07210 2-866): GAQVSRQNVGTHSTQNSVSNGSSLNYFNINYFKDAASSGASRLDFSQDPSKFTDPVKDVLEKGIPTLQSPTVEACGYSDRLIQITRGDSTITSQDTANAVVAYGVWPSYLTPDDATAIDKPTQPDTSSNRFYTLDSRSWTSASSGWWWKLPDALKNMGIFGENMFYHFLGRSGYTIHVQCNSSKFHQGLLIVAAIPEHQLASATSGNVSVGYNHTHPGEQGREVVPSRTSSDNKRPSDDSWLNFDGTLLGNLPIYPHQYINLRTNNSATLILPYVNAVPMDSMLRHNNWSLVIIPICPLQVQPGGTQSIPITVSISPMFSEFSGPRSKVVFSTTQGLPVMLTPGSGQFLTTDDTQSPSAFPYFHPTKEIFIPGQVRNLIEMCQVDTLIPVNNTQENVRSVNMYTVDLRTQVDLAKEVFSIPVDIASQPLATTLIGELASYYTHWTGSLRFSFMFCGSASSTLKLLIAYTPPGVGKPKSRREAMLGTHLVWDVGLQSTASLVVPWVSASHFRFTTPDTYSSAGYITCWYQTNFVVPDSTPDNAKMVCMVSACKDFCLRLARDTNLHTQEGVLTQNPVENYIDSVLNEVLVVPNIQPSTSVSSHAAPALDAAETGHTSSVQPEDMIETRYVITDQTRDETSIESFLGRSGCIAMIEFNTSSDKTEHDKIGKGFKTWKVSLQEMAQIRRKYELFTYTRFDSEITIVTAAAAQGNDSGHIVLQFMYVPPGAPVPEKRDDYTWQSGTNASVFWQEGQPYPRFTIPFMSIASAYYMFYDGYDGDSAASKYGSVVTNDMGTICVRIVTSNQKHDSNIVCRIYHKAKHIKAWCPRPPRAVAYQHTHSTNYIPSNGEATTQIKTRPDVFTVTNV
Sequence of biotinylated RV89 (human rhinovirus) (P07210 2-866): as above
Sequence of recombinant human ICAM-1/CD54 (R&D Systems) (P05362 28-480 limits assumed): as the sequence (P05362 28-480 limits assumed) above

human rhinovirus strain RV89 (major group RV-A), purified virus (from UniProt P07210 2-866)
lowest virus concentration at which binding to ICAM-1 was detected [1]: 6.25 µg/mL

ultrasensitive Streptavidin-Peroxidase Polymer (Merck) (from UniProt P22629 37-163)
lowest coated concentration of biotinylated RV89 that was detected [2]: 0.625 µg/mL

recombinant human ICAM-1/CD54 (R&D Systems) (from UniProt P05362 28-480) (receptor)
percent inhibition of RV89 binding to plate-bound ICAM-1 [3]: > 95%

recombinant human LDLR (R&D Systems) (from UniProt P01130 22-788) (receptor)
percent inhibition of RV2 binding to plate-bound LDLR [4]: > 60%

biotinylated RV89 (from UniProt P07210 2-866)
lowest virus concentration at which binding to ICAM-1 was detected [1]: 6.25 µg/mL
